According to publication PMC3428313:

What was measured:
[1] = tested on: C/EBPbeta isoform LAP, P17676-2; assay: competition EMSA; conditions: 20 mM HEPES pH 8.0, 1 mM MgCl2, 60 mM KCl, 0.1 mM EDTA, 15% glycerol, 1 ug poly dI-dC, 8 ug nuclear extract; 30 min room temperature then 15 min 4 C; gel at …
[2] = tested on: C/EBPbeta isoform LIP (Flag-LIP), P17676-3; assay: competition EMSA; conditions: 20 mM HEPES pH 8.0, 1 mM MgCl2, 60 mM KCl, 0.1 mM EDTA, 15% glycerol, 1 ug poly dI-dC, 8 ug nuclear extract; 30 min room temperature then 15 min 4 C; gel at …
C/EBPbeta isoform LIP (Flag-LIP), P17676-3, sequence (P17676 199-345): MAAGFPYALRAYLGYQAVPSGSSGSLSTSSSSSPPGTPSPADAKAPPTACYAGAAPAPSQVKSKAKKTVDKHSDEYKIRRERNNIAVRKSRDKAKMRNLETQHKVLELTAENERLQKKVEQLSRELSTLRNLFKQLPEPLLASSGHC

C/EBPbeta isoform LAP, P17676-2, sequence (P17676 24-345): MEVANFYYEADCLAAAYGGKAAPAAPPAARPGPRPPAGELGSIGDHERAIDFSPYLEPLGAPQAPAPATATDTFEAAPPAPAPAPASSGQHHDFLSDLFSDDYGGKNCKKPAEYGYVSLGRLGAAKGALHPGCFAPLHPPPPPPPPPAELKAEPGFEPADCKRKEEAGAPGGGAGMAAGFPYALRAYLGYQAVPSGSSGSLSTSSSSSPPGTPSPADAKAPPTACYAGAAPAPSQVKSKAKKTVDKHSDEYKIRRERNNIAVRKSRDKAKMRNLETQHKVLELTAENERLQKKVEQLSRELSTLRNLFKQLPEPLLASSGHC

| Sequence | Kd [1] | Kd [2] |
| --- | --- | --- |
| GCTTGCTTGCTTAAAGACCT (double strand) [DS1C/A C/EBP site] | 24.8 10^-7 M | 5.1 10^-7 M |
| GCTTGCTTGCTTAAAGCCCT (double strand) [DS1 wild-type C/EBP site] | 50 10^-7 M | 17.5 10^-7 M |
